Assay results taken from patent US5871901.

Columns and labels:
[1] = test system: DP-1/E2F-1 + orf 6/7 (in SL2 cells) (Mus musculus? / Homo sapiens? / adenovirus type 5); assay: cell_activity; details: enhancement by orf 6/7 over DP-1/E2F-1
[2] = biological target: DP-1/E2F-1 heterodimer (murine)

| Substance | activity [1] [fold] | transcriptional activity of the adenovirus E2a promoter (pE2a CAT reporter, SL2 cells) [2] [fold] |
| --- | --- | --- |
| E2a promoter (-96 to +68), two E2F sites | 2 |  |
| Ad5 orf 6/7 protein expressed from pE4 (complete Ad5 orf 6/7 cDNA) |  | 2 |
